Laboratory results from publication PMC11852578, “Enhanced Site-Specific Fluorescent Labeling of Membrane Proteins Using Native Nanodiscs” (Biomolecules, 2025).

Tests used:
[1] = biological target: the molecule itself; assay: SEC; KvAP in 0.25% (w/v) DM micelles; Superdex 200 Increase 10/300; SEC buffer 100 mM KCl, 25 mM Tris, pH 8; size estimated against gel filtration standards
[2] = biological target: the molecule itself; assay: fluorescence correlation spectroscopy (molecular brightness); SEC-purified, AF647-labelled protein in Glyco-DIBMA nanodiscs; brightness compared with free AF647 maleimide dye at the same laser power, assuming labelling of all monomers
[3] = biological target: the molecule itself; assay: SEC; KvAP in Glyco-DIBMA native nanodiscs, labelled with AF647 maleimide; standard buffer 150 mM KCl, 50 mM Tris, pH 7.4; UV and fluorescence detection
[4] = biological target: the molecule itself; assay: SDS-PAGE; HpUreI L134C purified in LDAO instead of DDM
[5] = biological target: the molecule itself; assay: SEC; HpUreI L134C in Glyco-DIBMA native nanodiscs, labelled with AF647 maleimide; standard buffer 150 mM NaCl, 50 mM Tris, pH 7.4

Protein | stoichiometry N [1] | stoichiometry N [2] | also measured
KvAP wild type, archaeal voltage-gated potassium channel from Aeropyrum pernix, in DM detergent micelles (natural protein, voltage-gated potassium channel KvAP, Aeropyrum pernix; native cysteine printed as C260; Labelling with AF647 maleimide failed in detergent, so the protein was unlabelled; also called wild-type KvAP; source: E. coli C43, pET21a-derived vector, membranes solubilised in DM, purified (Ni-NTA, SEC)) GGRVRNIGDVMEHPLVELGVSYAALLSVIVVVVEYTMQLSGEYLVRLYLVDLILVIILWADYAYRAYKSGDPAGYVKKTLYEIPALVPAGLLALIEGHLAGLGLFRLVRLLRFLRILLIISRGSKFLSAIADAADKIRFYHLFGAVMLTVLYGAFAIYIVEYPDPNSSIKSVFDALWWAVVTATTVGYGDVVPATPIGKVIGIAVMLTGISALTLLIGTVSNMFQKILVGEPEPSCSPAKLAEMVSSMSEEEFEEFVRTLKNLRRLENSMK | 4 |  | 
KvAP K102C single-cysteine mutant labelled with AF647 maleimide, in Glyco-DIBMA native nanodiscs (natural protein, Aeropyrum pernix, Alexa Fluor 647 maleimide on the introduced cysteine K102C, voltage-gated potassium channel KvAP, Aeropyrum pernix; native cysteine mutated to alanine and cysteine introduced at K102; Same construct as m3, but labelled and in a nanodisc; also called mutant K102C; source: E. coli C43, membranes extracted with Glyco-DIBMA, purified (Ni-NTA with on-column labelling, SEC)) GGRVRNIGDVMEHPLVELGVSYAALLSVIVVVVEYTMQLSGEYLVRLYLVDLILVIILWADYAYRAYKSGDPAGYVKCTLYEIPALVPAGLLALIEGHLAGLGLFRLVRLLRFLRILLIISRGSKFLSAIADAADKIRFYHLFGAVMLTVLYGAFAIYIVEYPDPNSSIKSVFDALWWAVVTATTVGYGDVVPATPIGKVIGIAVMLTGISALTLLIGTVSNMFQKILVGEPEPSASPAKLAEMVSSMSEEEFEEFVRTLKNLRRLENSMK |  | ~4 | 
KvAP wild type labelled with AF647 maleimide, in Glyco-DIBMA native nanodiscs (natural protein, Aeropyrum pernix, Alexa Fluor 647 maleimide on the native cysteine C260, voltage-gated potassium channel KvAP, Aeropyrum pernix; native cysteine printed as C260; Same construct as m1, but labelled and in a polymer-encapsulated lipid nanodisc; also called wild-type KvAP; nanodisc-purified wild-type KvAP; source: E. coli C43, membranes extracted with Glyco-DIBMA, purified (Ni-NTA with on-column labelling, SEC)) GGRVRNIGDVMEHPLVELGVSYAALLSVIVVVVEYTMQLSGEYLVRLYLVDLILVIILWADYAYRAYKSGDPAGYVKKTLYEIPALVPAGLLALIEGHLAGLGLFRLVRLLRFLRILLIISRGSKFLSAIADAADKIRFYHLFGAVMLTVLYGAFAIYIVEYPDPNSSIKSVFDALWWAVVTATTVGYGDVVPATPIGKVIGIAVMLTGISALTLLIGTVSNMFQKILVGEPEPSCSPAKLAEMVSSMSEEEFEEFVRTLKNLRRLENSMK |  | ~4 | stoichiometry N [3]: 4
KvAP E275C single-cysteine mutant, in DM detergent micelles (natural protein, Aeropyrum pernix, voltage-gated potassium channel KvAP, Aeropyrum pernix; native cysteine mutated to alanine and cysteine introduced at E275; Labelling failed in detergent, so the protein was unlabelled; source: E. coli C43, pET21a-derived vector, membranes solubilised in DM, purified (Ni-NTA, SEC)) GGRVRNIGDVMEHPLVELGVSYAALLSVIVVVVEYTMQLSGEYLVRLYLVDLILVIILWADYAYRAYKSGDPAGYVKKTLYEIPALVPAGLLALIEGHLAGLGLFRLVRLLRFLRILLIISRGSKFLSAIADAADKIRFYHLFGAVMLTVLYGAFAIYIVEYPDPNSSIKSVFDALWWAVVTATTVGYGDVVPATPIGKVIGIAVMLTGISALTLLIGTVSNMFQKILVGEPEPSASPAKLAEMVSSMSECEFEEFVRTLKNLRRLENSMK | 4 |  | 
KvAP E275C single-cysteine mutant labelled with AF647 maleimide, in Glyco-DIBMA native nanodiscs (natural protein, Aeropyrum pernix, Alexa Fluor 647 maleimide on the introduced cysteine E275C, voltage-gated potassium channel KvAP, Aeropyrum pernix; native cysteine mutated to alanine and cysteine introduced at E275; Same construct as m4, but labelled and in a nanodisc; also called mutant E275C; source: E. coli C43, membranes extracted with Glyco-DIBMA, purified (Ni-NTA with on-column labelling, SEC)) GGRVRNIGDVMEHPLVELGVSYAALLSVIVVVVEYTMQLSGEYLVRLYLVDLILVIILWADYAYRAYKSGDPAGYVKKTLYEIPALVPAGLLALIEGHLAGLGLFRLVRLLRFLRILLIISRGSKFLSAIADAADKIRFYHLFGAVMLTVLYGAFAIYIVEYPDPNSSIKSVFDALWWAVVTATTVGYGDVVPATPIGKVIGIAVMLTGISALTLLIGTVSNMFQKILVGEPEPSASPAKLAEMVSSMSECEFEEFVRTLKNLRRLENSMK |  | ~4 | 
KvAP K102C single-cysteine mutant, in DM detergent micelles (natural protein, Aeropyrum pernix, voltage-gated potassium channel KvAP, Aeropyrum pernix; native cysteine mutated to alanine and cysteine introduced at K102; Labelling failed in detergent, so the protein was unlabelled; source: E. coli C43, pET21a-derived vector, membranes solubilised in DM, purified (Ni-NTA, SEC)) GGRVRNIGDVMEHPLVELGVSYAALLSVIVVVVEYTMQLSGEYLVRLYLVDLILVIILWADYAYRAYKSGDPAGYVKCTLYEIPALVPAGLLALIEGHLAGLGLFRLVRLLRFLRILLIISRGSKFLSAIADAADKIRFYHLFGAVMLTVLYGAFAIYIVEYPDPNSSIKSVFDALWWAVVTATTVGYGDVVPATPIGKVIGIAVMLTGISALTLLIGTVSNMFQKILVGEPEPSASPAKLAEMVSSMSEEEFEEFVRTLKNLRRLENSMK | 4 |  | 
HpUreI L134C single-cysteine mutant, Helicobacter pylori proton-gated urea channel, in detergent (DDM or LDAO) (natural protein, urea channel HpUreI, Helicobacter pylori; The hexamer remained unlabelled in detergent; with TCEP only aggregated and non-hexameric oligomers were labelled; also called detergent-solubilized HpUreI; source: E. coli C43, membranes solubilised in DDM or LDAO, purified (cobalt beads, HRV 3C cleavage, SEC)) MLGLVLLYVGIVLISNGICGLTKVDPKSTAVMNFFVGGLSIICNIVVITYSALHPTAPVEGAEDIAQVSHHLTSFYGPATGLLFGFTYLYAAINHTFGLDWRPYSWYSLFVAINTIPAAILSHYSDMLDDHKVCGITEGDWWAIIWLAWGVLWLTAFIENILKIPLGKFTPWLAIIEGILTAWIPAWLLFIQHWV |  |  | stoichiometry N [4]: 6
HpUreI L134C single-cysteine mutant labelled with AF647 maleimide, in Glyco-DIBMA native nanodiscs (natural protein, Alexa Fluor 647 maleimide on the introduced cysteine L134C, urea channel HpUreI, Helicobacter pylori; Same construct as m7, but labelled and in a nanodisc; no removal of the His tag is told for the nanodisc preparation; also called nanodisc-embedded HpUreI; source: E. coli C43, membranes extracted with Glyco-DIBMA, purified (Ni-NTA with on-column labelling, SEC)) MLGLVLLYVGIVLISNGICGLTKVDPKSTAVMNFFVGGLSIICNIVVITYSALHPTAPVEGAEDIAQVSHHLTSFYGPATGLLFGFTYLYAAINHTFGLDWRPYSWYSLFVAINTIPAAILSHYSDMLDDHKVCGITEGDWWAIIWLAWGVLWLTAFIENILKIPLGKFTPWLAIIEGILTAWIPAWLLFIQHWV |  | ~6 | stoichiometry N [5]: 6
